According to the DeepSol protein solubility set:

Assay: soluble on expression in E. coli; label from the status in PepcDB or PDB records

| Sequence | soluble on expression in E. coli |
| --- | --- |
| MEEPQITVGILSGKEIEFSFPESFTTPDGTKVSGAQKAVYQKEKIYWSGKEYDELIFYPQPNAGIFFELKDVTIGINFHWERKEVQRFQGALKIIVEGETLTAINVISIEDYLTSVISSEMSATASLELLKAHAVISRSWLINKLRVENEKWKATIQPDSAANSPHSTLHSQLIKWYDHEAHTHFDVCADDHCQRYQGITRASTPQAIEAVSATRGEVLMYEGKICDARFSKCCGGAMEEFQNCWENVRHPYLTGKRDYIPESHASDSEKQITGPAIQLPDLTQEEEADRWIRTSPDAFCNTQDKKILSQVLNNYDQETTDFYRWKISYSQQELAELIHQRSGIDFGEIIDLIPVERGTSGRLIRLKIVGTLRTLTIGKELEIRRTLSPSHLYSSAFLVDKEKGEEGNVPTRFTLTGAGWGHGVGLCQIGAAVMGERGYYYKDILAHYYPGSRLEKQYE | not soluble |
| MHGIDLHTHSNISDGTLSPSCLVDAAIACGIHTLALTDHDTMDGLETAIQQAQGHDIQIISGAEISSQWSRPNTKKAYGVHIVALNMQNPEPLLDALVIQKNIRAERAQQICQILQQCTGQDIYTDVLLKVEGEPDRITRTHIAKALVEKEIVARPQQAFDRFLKEGKRAYVKFDGLNLADTIRIIHESEGFAILAHPTRYDLSSTNVRYLIELFAKMGGDAVELPPSVDPVSTRQMIDRIIQQFDLKVSIGSDFHGENMPWIKLGHTPQPNPHQTGIWESFR | not soluble |
| MAVIYYDKDADLNLIKDKKIAIIGYGSQGHAHALNLKDSGLNVVVGLREGSKSWKKAEEQGLTVKTIEEAAKEADIIMILIPDEHQPEIYKKYIEKHLTEGKMLMFAHGFNIHYHQIIPPKNVDVTMIAPKSPGHIVRREYVEGRGVPALVAVYQDYTGKAKDIALAYAKGIGVTRAGVIETTFKEETETDLFGEQAVLCGGVTALIKAGFETLVDAGYQPEIAYFECLNELKLIVDLIYEGGLSFMRYSVSNTAEYGDYISQEKIVTKEVRENMKQMLKDIQTGKFAKDWILENQAGRPYFYTMRKKESEHLIEKVGKELRKMMPWLKERNVDEE | soluble |
| MKQSLFGRVRDAILADFHNVLDEKERKNPIAMLNQYLRDSEREITKIEKLIERHKTLKSNFARELEQARYFVNKRSKQAIIAQEADELQLHERALEEVAYYEGQVTRLEEMYAGVVEQIDELERRLSEMKNKLKEMHAKRMELMARENMAHANRRMNTAMHKMDENNPFLRFEEIEDHIRDLETRMNEEHERDTFDMKIAKLEREMKEKNDVSLTKELTKLEHHHHHH | soluble |
| MGSDKIHHHHHHMERRRWLGAMAGVCPSCGRTLEGSGVRRLCPDCYVERYGVARIPEAVKFVYCRDCGAYRYQGGWNEGLESVEDTLREYLHMVLTVRMKPTEAVEEAWVESIELVQAFAGPGVYTALVTVAGRAGGQSLVERKIITVEASQALCPRCTARSTGRGFEAEVKVRSTAGSLGRDVKTGIARVLRRSRSIAGFVVKVDENREGLDIYLTDQTAARMLAGKLRSEFSAEVKESYKLVGRQPSGRRKGRLTISVRIPEYRPGELISVEGRPHLYLGRSGRGLVTIDLDTGRERVVDTSRTGVLAGVKRYEPGARLRRMMLLSSSGDSMVFLDVDKGMQEVVDAPRGSVRPFVESMEPGRVYEVFIHGGRIYVLRETG | not soluble |
| MAQHEVITRGGDAFLLKLRESALSSGSMSEEQFFLLIGISSIHSDRVILAMKDYLVSGHSRKDVCEKYQMNNGYFSTTLGRLTRLNVLVARLAPYYTDSVSAIAEAASL | soluble |
| MSTPTLSPSTEKLIPIIGLSVSGTFSPRPIATTAHSVVFKVDSQLYRREVIVKIVDRKSIPANVAEKFFPRELEITMKVRHPHIARCLAITRPAPTKFVIISDYYERGTLLEWILQKKRLKEHPLAATLFRQLIEAINYLHKRGIVHRDVKLENILIDGNGDIKLIDFGFARHIERRERSRSFCGTQPYTCPQITKYRPYEAYAADYYACGIVLFTMVTGKWPNMTENPNIYPEGYPSRSCRKLVSSLLDGNEMSRAGYDECVNSEWMGVHPVWMFANHAYFYEEVRGEDPNSSNCEMSEI | not soluble |
| MGSDKIHHHHHHMSIKILQPGLFSTVQDLGRKGYEHIGFSGAGAMDQFSFKVAQLLINNDGPAIEYTLIGPTIQFNTQNTFVITGGSVNASLNNKTISMNSVILAEKGDILKIGAITKGARGYLTFGHSINVPPIAESYATHTRSSIGGFKGRKLLANDVITVKINNDFKENIGKTIHLQDDLLPENNIIHILQGPQFEAFSEEARAKIVNHPYLITEQSDRMGYRLEGDSVAPINQADIISEPVALGSVQVPNDGQPIILLNDKQTIGGYTKIATVCKFDLPKLAQMKPQDTIQFKWISFQEAVDKNREQMSLFNEILKSHQKTPIFDTSSLRHTSKKLATILKGDL | not soluble |
| MAVTWAVSDGRAGNARQAEALARALHPDTVHALHLQARAPWRWAAPRRLPGANSAFGPAFAAQLQQPPGLVIGCGRQAALATRLLRARGSVAVQILDPRLDRRQWDLVVVPEHDALRGENVLTLLGSLHPVDDAWLAAGRAAFPAVGALPGPRVALLIGGPTTQVPWTLQALAAQCNAVQAQVRAAGGSLLITASRRTPPEVVALLRTLQQGNPGLLWCDARDGANPYAGLLGWADAIVASADSVNLLSEACATPVPVVAACAEFARGRVGAYVQALQQRQRLCAADEVLATTAAMTPVRETERIAAQVRMRLGLLEHHHHHH | soluble |
| MIKLTEYIYLASEQPLSTGSITLNGLSKPTGNLLNKAFFFFINDFEGDPPGKFSYSNYLKTLNYQVCSMCSLPSDNQNIETPSAIALLGYIRNHFKNTCTTKLYILSALNGFENKPISKTVTRKLSDLSYKDLYYQEMKLLKIIR | not soluble |
| MGSKAKKRVLLPTRPAPPTVEQILEDVRGAPAEDPVFTILAPEDPPVPFRMMEDAEAPGEQLYQQSRAYVAANQRLQQAGNVLRQRCELLQRAGEDLEREVAQMKQAALPAAEAASSG | soluble |
| FNCLGMSNRDFLEGVSGATWVDLVLEGDSCVTIMSKDKPTIDVKMMNMEAANLAEVRSYCYLATVSDLSTKAACPTMGEAHNDKRADPAFVCRQGVVDRGWGNGCGLFGKGSIDTCAKFACSTKAIGRTILKENIKYEVAIFVHGPTTVESHGNYSTQVGATQAGRFSITPAAPSYTLKLGEYGEVTVDCEPRSGIDTNAYYVMTVGTKTFLVHREWFMDLNLPWSSAGSTVWRNRETLMEFEEPHATKQSVIALGSQEGALHQALAGAIPVEFSSNTVKLTSGHLKCRVKMEKLQLKGTTYGVCSKAFKFLGTPADTGHGTVVLELQYTGTDGPCKVPISSVASLNDLTPVGRLVTVNPFVSVATANAKVLIELEPPFGDSYIVVGRGEQQINHHWHKSGS | soluble |
| MSGEVGSNECLVSTNEVQEDSPAVTESSSANGSSPVRRGRGRPPKGTKVPKVKPAPKPYSGAPRGRPRKSDQVAKSPVAKSPVASSSADASPKRSRGAPKSYAEDVAATKPAKTDVATPALAALTGEKKGRGRPKKN | soluble |
| MIDVFDGQVTTRIALQLLALLAQRPGELRHAKWSEFDEADKVWAIPAGKMKMRRDHFVPLADQAITLLNELRPLTGESEYLFPSLRSWHRPMSENTMNAALRRMGYSGDEMTAHGFRATFSTLANESGLWNPDAIERALAHEERNELEHHHHHH | not soluble |
| MGHHHHHHGGHMSLKVFIDPDGDIEEIKEAFRLINPELYERLLKIDGSDEFFRYMVKPLRVSVRVNTLKAEVDEVVENLKELITGRVPWCEEGFYLSIDEFSRIPEHQLGLIFSQEAASMIPPLVMELEPKMTVLDIAASPGAKTTQIAQYLQNEGCIVANDVKHSRINILISNLQRCGVLIAKVTVKDGRYFGRFRNRFDAVLVDAPCSNMGMIRKNYRNIRLWKMRDCYGLSKLQKSLLMAAYKAVKPGGVVVYSTCTLEPIENEEVVDYILRNTDAEIEEVNLPVKGVEPFTKFDGKEYSEEVRKCLRLHPQSSDTEGFFVAKLRKPEGGS | soluble |
| MAVIRIKKPRGPGEKDQPLEGEPKLKRIRIKTKVTDEDIKPKPKLKINLKKKKESADGKEKKNSLKLKLNLKKNEEPVKKIHKAPKLRLKPIRIPGEAYDSEASDIEDDPLIESGVILRILPDIQLEFVKNSLESGDYSGISIKWKNERHAVVTINDVMYGAILVDLPTVIEVNKSVDRKNLLKTFDVSQMLLCIRPIQEEEEVYALEAPDTEDLVVKHFEGIEDEIWENKETFLKGYNGAPLSDMEAKHLKEIALKGYDYKHGISPPLYNVRNRRFRRKMDPNEIDYVEKVVDMLLKQDKQAEEVSYDLVDKSELQARQERVSSWENFKEEPGEPLSRPALKKEEIHTIASAVGKQGAEEEGEEGMEEEEEEDLDLGAAFESEEEGSGAEGDKEQQQEEVGDEVDQDTGGEDDDDDDDGDIEAAGGESESDDEKDENRQHTELLADELNELETTLAHTKHKLSKATNPLLKSRFIDSIKKLEKEAELKRKQLQQTEDSVQKQHQHRSDAETANNVEEEEEEEEEEEEEDEVDEDEEDDEENDEDEDNVHEREHIQENKVVRELDEAPAEETLDQNDLDMMMLFGAEGDE | not soluble |
| STVELCGQWDTRTVAGGRYTVSNNVWGAETAQCIEVGLETGNFTITRAEHDNGNNVAAYPNIQFAIPQPRRVQELSDVRTSWTLTPITTGRWNAAYDIFFAANPNHVTYSGDAELMIWLNKNGDVMPIGSRVATVELAGATWEVWYADNGAMNVISYVRTTPTTSVTELDLKAFIDDAVARGYIRPEWYLLSVQTGFELFTGGAGLRSADFSVTVQ | soluble |
| MTYELCLEYGTYPLSRVDAYWGEDQNPPTFIQEDRLLCHKLETMNHLFHDLFVTIESQFHYVGFNMPEKRAQIRILYQEVATILKSKYKDYPIKIETFLL | not soluble |
| MSRFQTLTPASLSREAFIEAFADIYEHSPWVAEKAYDLGIDDSLNDIEGLHQRMADILLSASREAQLALINAHPDLAGKAAIRGELTASSTSEQAGAGIHECSAEEFARFTELNDAYKARFGFPFIKAVKGSNRHQILAAFEERIQHSADEEFATALAEINKIALFRLQQLLEHHHHHH | soluble |
| MTTQSTLQSVPALGTHPASGSNPSRAETREQLSKASYDLLVIGGGILGISTAWHAAQSGLRVAVVDAGDFAGATSSASSKLLHGGLRYLQTGAVKLVAENHFERRAVSRQVAPHLANPLTFYLPVYKGGPHGAAKLGAGVFAYSALSAFGDGVGHLLSPAKAAQDVPELRTDNLKAVAVYGDDQMNDARMALMTVRAAVESGAVVLNHAEVTGLRFTGGRVTGAELKDRLSGDEFGVNARLVLNATGPWVDHLRRMEDPAAAPSIRLSKGAHLVLKRTAPWKAALATPIDKYRITFALPWEDMLLLGTTDEEFEGDPADVAVNDKDITQILDEAAFSIRDQQLDRDLITYSFAGLRVLPGGPGDTAKAKRETVVTEGRGGMLSVAGGKWTTFRHIGRTVMKKLEALPGHPLGDDFEPIASLPKKLPLPGVANPRAVAHRLLVDGSAPGPRMAADTARHLATHYGSLAFDIARLANESPELARRVHPDAPEIWAQVVWARDNEWAETADDVLRRRTTLTIRGLATDDVRAQVQDVLDKKLEHHHHHH | not soluble |
| MALINNRSKFSFFNKVRVLLKNILKPDESVEDVVDEHFRFTSSLSLDAPDGQIENLYQDEKDGKYHLTLFDNGLTGATGILPAAYTEWLIERKLRYNDDAPKAFMDMFDHRMYCLSYLAWQKMHLSGDENRRDNNVLNNVLLSLGGITPQTVSVTGLAYVAFYSQPVRSLAGLEQLLSLIHQIRVSINPFRGTFENTEPSEQGVLGNCLYTLGEGPVIGNVRWVVDSHFDVVLGPVDYRKAQELMPGKDSHYFIRQQIRSYIGDVLKFKIYVKIYPGNNDNQLNINNKLGFNLSLGSETENYKERCFCIF | not soluble |
